Literature values, collected in paper PMC8915186.

Molecular target: IL-1R1 (Homo sapiens) (UniProt P14778)
Chain of UniProt P14778 (P14778 18-569): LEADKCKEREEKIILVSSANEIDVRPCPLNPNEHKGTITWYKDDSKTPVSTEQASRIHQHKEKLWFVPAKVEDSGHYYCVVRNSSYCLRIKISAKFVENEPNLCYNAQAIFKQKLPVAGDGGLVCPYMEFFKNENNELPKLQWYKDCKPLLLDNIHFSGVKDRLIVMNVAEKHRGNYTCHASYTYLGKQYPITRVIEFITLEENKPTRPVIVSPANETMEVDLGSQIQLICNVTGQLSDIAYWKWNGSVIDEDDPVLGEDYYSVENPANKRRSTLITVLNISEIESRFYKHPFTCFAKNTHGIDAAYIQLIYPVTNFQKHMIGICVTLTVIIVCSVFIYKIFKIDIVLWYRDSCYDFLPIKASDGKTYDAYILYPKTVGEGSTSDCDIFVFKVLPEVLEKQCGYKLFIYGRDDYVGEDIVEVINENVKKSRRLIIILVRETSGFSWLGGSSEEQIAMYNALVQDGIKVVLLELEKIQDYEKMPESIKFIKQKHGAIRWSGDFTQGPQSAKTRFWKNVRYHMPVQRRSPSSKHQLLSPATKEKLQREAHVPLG

Kd: 2 nM
Substance: IL-1β (from UniProt P01584)
